Reference: patent US20050080234A1 (Takeda / Millennium, published 2005)
Where two headings read alike, the source gives them in different places.

T1: wild-type mouse C140 receptor (mouse, UniProt P55086 32-399)
T1 sequence: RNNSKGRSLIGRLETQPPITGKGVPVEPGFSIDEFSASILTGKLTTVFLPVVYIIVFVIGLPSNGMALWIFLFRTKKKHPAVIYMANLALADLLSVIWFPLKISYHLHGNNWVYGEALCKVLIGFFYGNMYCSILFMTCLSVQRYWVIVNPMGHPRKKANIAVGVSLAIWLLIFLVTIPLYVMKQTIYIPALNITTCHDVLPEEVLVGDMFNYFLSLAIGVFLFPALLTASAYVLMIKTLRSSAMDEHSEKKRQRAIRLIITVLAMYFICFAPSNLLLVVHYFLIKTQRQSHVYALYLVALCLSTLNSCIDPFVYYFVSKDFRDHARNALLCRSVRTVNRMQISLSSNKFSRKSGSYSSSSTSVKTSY

T2: mouse C140 receptor mutant 35His (mouse, UniProt P55086 32-399)
T2 sequence: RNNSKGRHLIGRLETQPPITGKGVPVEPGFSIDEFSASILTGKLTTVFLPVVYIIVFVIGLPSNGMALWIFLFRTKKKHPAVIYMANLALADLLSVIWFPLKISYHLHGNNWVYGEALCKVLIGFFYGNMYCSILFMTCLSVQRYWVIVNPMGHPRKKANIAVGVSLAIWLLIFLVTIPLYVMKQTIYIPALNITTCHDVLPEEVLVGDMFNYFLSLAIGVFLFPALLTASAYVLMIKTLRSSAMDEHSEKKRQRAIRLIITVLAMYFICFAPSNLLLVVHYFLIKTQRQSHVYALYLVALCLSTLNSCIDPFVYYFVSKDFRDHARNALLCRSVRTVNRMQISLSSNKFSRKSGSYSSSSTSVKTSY

T3: mouse C140 receptor mutant 35Arg (mouse, UniProt P55086 32-399)
T3 sequence: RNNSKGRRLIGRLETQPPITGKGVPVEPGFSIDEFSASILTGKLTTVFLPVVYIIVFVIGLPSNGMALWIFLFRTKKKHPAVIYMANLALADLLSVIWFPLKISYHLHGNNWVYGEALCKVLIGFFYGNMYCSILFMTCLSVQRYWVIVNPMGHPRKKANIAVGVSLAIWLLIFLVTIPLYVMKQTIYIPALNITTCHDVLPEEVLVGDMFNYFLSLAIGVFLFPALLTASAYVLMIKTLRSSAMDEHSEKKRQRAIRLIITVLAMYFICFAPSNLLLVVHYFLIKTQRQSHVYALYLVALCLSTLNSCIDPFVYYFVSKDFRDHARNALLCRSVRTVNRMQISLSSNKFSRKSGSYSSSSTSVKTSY

T4: mouse C140 receptor mutant 35Pro (mouse, UniProt P55086 32-399)
T4 sequence: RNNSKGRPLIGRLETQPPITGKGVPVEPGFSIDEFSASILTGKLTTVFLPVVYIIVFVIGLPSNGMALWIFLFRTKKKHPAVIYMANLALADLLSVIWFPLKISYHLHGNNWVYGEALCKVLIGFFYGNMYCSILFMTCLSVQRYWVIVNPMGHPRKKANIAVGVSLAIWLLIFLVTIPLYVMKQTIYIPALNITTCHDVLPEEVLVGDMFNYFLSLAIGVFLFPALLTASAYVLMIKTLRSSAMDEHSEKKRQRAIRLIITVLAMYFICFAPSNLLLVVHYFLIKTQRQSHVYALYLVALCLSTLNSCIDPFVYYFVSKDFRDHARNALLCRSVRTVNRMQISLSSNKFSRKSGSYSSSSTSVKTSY


Key:
Test in all cases: cell-based or functional assay
[1] = biological target: T1, wild-type mouse C140 receptor
[2] = biological target: T2, mouse C140 receptor mutant 35His
[3] = biological target: T3, mouse C140 receptor mutant 35Arg
[4] = biological target: T4, mouse C140 receptor mutant 35Pro
[5] = biological target: T1, wild-type mouse C140 receptor; remark: listed apart in the source
[6] = biological target: T1, wild-type mouse C140 receptor; remark: listed apart in the source

Molecule	Fold Increase in 45Ca [5]	other results
trypsin (enzyme)		Fold increase in 45Ca [1]: 6.6 fold; Fold increase in 45Ca [2]: 0 fold; Fold increase in 45Ca [3]: 0 fold; Fold increase in 45Ca [4]: 0 fold
SLAGRL [peptide SLAGRL]	0 fold	
SAIGRL [peptide SAIGRL]	0 fold	
ALIGRL [peptide ALIGRL]	1.3 fold	
SLIGRL [agonist peptide SLIGRL]	15 fold	Fold Increase in 45Ca [6]: 11 fold; Fold Increase in 45Ca [2]: 23 fold; Fold Increase in 45Ca [3]: 15 fold; Fold Increase in 45Ca [4]: 23 fold
SLIARL [peptide SLIARL]	4.3 fold	

Now from value to molecule, other results behind:

Fold Increase in 45Ca [5]	Molecule	other results
8.5 fold	SLIGRA [peptide SLIGRA]	
0 fold	SLIGAL [peptide SLIGAL]	
1.7 fold	SFFLRW [thrombin receptor agonist SFFLRW]	
